Reference: the nanobody polyreactivity screen of Harvey et al. (2022)

Assay: yeast display, Sf9 membrane polyspecificity reagent, FACS + sequencing; frameworks hold sequencing errors
How it was run: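 Nanobodies came from a synthetic yeast display library in Saccharomyces cerevisiae BJ5465, induced with galactose for 36–48 hours and stained for 1 hour at 4 °C with 10% biotinylated, detergent-solubilized Sf9 membrane reagent. Cells were enriched on streptavidin microbeads and then FACS-sorted, with low and high (top ~1%) gates set on anti-HA fluorescence for expression and streptavidin fluorescence for reagent binding. Each polyreactivity label reflects the gate a clone came from. Genes were amplified by colony PCR, sequenced by MiSeq 2 × 250 and filtered by CDR length.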

## QVQLVESGGGLVQAGGSLRLSCAASGSIYVNAMGWYRQAPGKERELVAVISKSGGSTYYADSVKGRFTISRDNAKNTVYLQMNSLKPEDTAVYYCATRGVSPSRPGYYWGQGTQVTVSS
  polyreactivity (PSR sort gate): high polyreactivity

## QVQLVESGGGLVQAGGSLRLSCAASGSIYVQNAMGWYRQAPGKERELVAAITFSGVDTYYADSVKGRFTISRDNAKNTVYFQMNSLKPEDTAVYYCNADRGYNLVRRSQAVVEMDYWGQGTQVTVSS
  polyreactivity (PSR sort gate): low polyreactivity

## QVQLVESGGGLVQAGGSLRLSCAASGSIYWYAMGWYTQAPGKERELVAAITKSGSSTYYADSVKGRFTISRDNANNTVYLQMNSLIPEDTAVYYCAARRAVSGGVRMYYWGQGTQVTVSS
  polyreactivity (PSR sort gate): high polyreactivity

## QVQLVESGGGLVQAGGSLRLSCAASGSIYYGKTMGWYRHAAGKEWELDAAISSGGSTKYADSVKGRFTISRDNAKNTVYLQMNSLKPEDTAVYYSAADLPRYWVTWMDYWGQGTQLTVSS
  polyreactivity (PSR sort gate): low polyreactivity

## QVQLVESGGGLVQAGGSLRLSCAASGSIYYTNAMGWYRQAPGKERELVAAISYGGTTTYADSVKGRFTISRDNAKNTVYLQMNSLKPEDTAVYYCNADWLYYGYWGYGHIWYDYWGQGTQVTVSS
  polyreactivity (PSR sort gate): low polyreactivity

## QVQLVESGGGLVQAGGSLRLSCAASGSKFYTNVMGWYRQAPGKERELVARIDSGGSTNYADSVKGRFTISRDNAKNTVYLQMNSLKPEDTAVYYCAADWYIYDYWGQGTQVTVSS
  polyreactivity (PSR sort gate): low polyreactivity

## QVQLVESGGGLVQAGGSLRLSCAASGSLFGGYAMGWYRQAPGKERELVAAISGSGGSTYYADSVKGRFTISRDNAKNTVYLQMNSLKPEDTAVYYCAAEYYGTYSEGGESYDYWGQGTQVTVSP
  polyreactivity (PSR sort gate): low polyreactivity

## QVQLVESGGGLVQAGGSLRLSCAASGSLIRRYAMGWYRQAPGKEREFVAAISGRGGRTYYADSVKGRFTISRDNAKNTVYLQMNSLKPEDTAVYYCNAAFVTAEMDYWGQGTQVTVSS
  polyreactivity (PSR sort gate): high polyreactivity

## QVQLVESGGGLVQAGGSLRLSCAASGSLSSRNAMGAYRQAPGKERELVAAITRGSSTNYADSVKGRFTISRDNAKNTVYLQMNSLKPEDTAVYYCARRYDPVYKGMGYWGQGTQVTVSS
  polyreactivity (PSR sort gate): low polyreactivity

## QVQLVESGGGLVQAGGSLRLSCAASGSMFSVYAMGGYRQAPGKEMELVAAISRSGGSTYYADSVKGRFTISRDTAKNTVYLQMNSLKPEDTAVYYCAARLAGRGSSSSRVVRTGGYWGQGTQVTVSS
  polyreactivity (PSR sort gate): high polyreactivity

## QVQLVESGGGLVQAGGSLRLSCAASGSNFAVYAMGWYRQAPGKERELVAAISFSGGSTYYADSVKGRFTISRDNAKNTVYLQMNSLKPEDTAVYYCAADPWWTRTDLDYWGQGTQVTVSS
  polyreactivity (PSR sort gate): low polyreactivity

## QVQLVESGGGLVQAGGSLRLSCAASGSNFAYYTMGWYRPAPGKERELVAAITSGGSTYYADSVKGRFTISRDNAKNTVYLQMNSLKPEDTAVYYCATRHSVGRYGMDSWGQGTQVTVSS
  polyreactivity (PSR sort gate): high polyreactivity

## QVQLVESGGGLVQAGGSLRLSCAASGSNFDDNAMGWYRQAPGKERELVAAITRSGGSTYYADSVKGRFTISRDNAKNTVYLQMISLKPEDTAVYYCAAAAYHSYGPGKRFYYWGQGSQVTVSS
  polyreactivity (PSR sort gate): high polyreactivity

## QVQLVESGGGLVQAGGSLRLSCAASGSNFDTYAMGWYIPAPGKERELVAVLTWSGGGTYYSDSVKGRFTISRDNANNTVYLQMTSVKPEVTAVYYCNAADFGWDYASYYWGQGTQLTVSS
  polyreactivity (PSR sort gate): low polyreactivity

## QVQLVESGGGLVQAGGSLRLSCAASGSNFETYVMGWYRQAPGKERELFAAINSGGSTNYADSVKGRFTISRDNAKNTVYLQMNSLKPEETAVYYCNADWFTPAQPWYRYFIRYDYWGQGSQVTVSS
  polyreactivity (PSR sort gate): low polyreactivity

## QVQLVESGGGLVQAGGSLRLSCAASGSNFFYNVMGWYRQAPGKERELVAAITRSGGRTYYADSVKGRFTISRDNAKNTVYLQMNSLKPEDTAVYYCAAALGGKFDYWGQGTQVTVSS
  polyreactivity (PSR sort gate): high polyreactivity

## QVQLVESGGGLVQAGGSLRLSCAASGSNFGPNAMGWYRQAPGKERELVAVISFRGGNTYYADSVKGRFTISRDNAKNTVYLQMNSLKPEDTAVYYCAARGYRYGYGYWGQGTQVTVSS
  polyreactivity (PSR sort gate): high polyreactivity

## QVQLVESGGGLVQAGGSLRLSCAASGSNFGWYAMGWYRQAPGKERELVAAITFSSVSTYYADSEKGRFTISRDNAKNTVYLQMNSLKPEDTAVYYCAAVVYYTFDYWGLGTQVTVSS
  polyreactivity (PSR sort gate): low polyreactivity

## QVQLVESGGGLVQAGGSLRLSCAASGSNFLCYTMGWYRQAPGKERELVAAISRTGGSTYYADSVKGRFTISRDNAKNTVYLQRNSLKPEDTAVYYCAASLYSITRARYDYWGQGTQVTVSS
  polyreactivity (PSR sort gate): high polyreactivity

## QVQLVESGGGLVQAGGSLRLSCAASGSNFLYYAIGWYRQAPGKERELVDGIRRGGRTNYADSVKGRFTISRDNAKNTVYLQMNSLKPEDTAVYYCAKGGYWGQGTQVTVSS
  polyreactivity (PSR sort gate): high polyreactivity

## QVQLVESGGGLVQAGGSLRLSCAASGSNFNYYTMGWYRQAPGKERELVAAISYRGGRTYYADSVKGRFTISRDTSKNTVYLQMNSLKPEDTAVYYCNAVTRIYEVDYWGQGTQVTVSS
  polyreactivity (PSR sort gate): high polyreactivity

## QVQLVESGGGLVQAGGSLRLSCAASGSNFQFNAMGWYRQAPGKEREFVAAITSSAGRTYYADSVKGRFTISRDNAKNTVYLQMNSLKPEDSAVYYCGDTFYRRYVDLGYWGQGTQVTVSS
  polyreactivity (PSR sort gate): high polyreactivity

## QVQLVESGGGLVQAGGSLRLSCAASGSNFRSNAMGWYRQAPGKERELVAAISRRGGSTYYADSVKGRFRISRDIAKNTVYLQMNSLKPEDTAVYYCAAPTIVSGHDSWGQGTQVTVSS
  polyreactivity (PSR sort gate): high polyreactivity

## QVQLVESGGGLVQAGGSLRLSCAASGSNFRSYAMGWYIQAPGKERELVAAITWGGNTYYADSVKGRFTISRDNAKNTVYLQMNSLKPEDTAVYYCAAKSYYTRRSKYDYWGQGTQVTVSS
  polyreactivity (PSR sort gate): high polyreactivity

## QVQLVESGGGLVQAGGSLRLSCAASGSNFRVYAMGWDRQAPGKERELVAAISSSGGITYYADSVKGRFTISRDNAKNTVYLQMNSLKPEDTAVYYCAKGTVIHVLYDYWGQGTQVTVSS
  polyreactivity (PSR sort gate): low polyreactivity

## QVQLVESGGGLVQAGGSLRLSCAASGSNFSRNTMGWYRQAPWKERELVAGISSSGSRTYYADSVKGRFTISRDNAKNTVYLLMNSLKPEDTAVYYCAAEHQRSRGRRYYIGYDYWGQGTQVTVSS
  polyreactivity (PSR sort gate): low polyreactivity

## QVQLVESGGGLVQAGGSLRLSCAASGSNFTAYAMGWYRQAPGKERELVAAIDDSGDSTYYADSVKGRFTISRDNSKNTVYLQMNSLKPEDTAVYYCKAEYRVNKEYDYWGQGTQVTVSS
  polyreactivity (PSR sort gate): low polyreactivity

## QVQLVESGGGLVQAGGSLRLSCAASGSNFTAYAMGWYRQAPGKERELVAAITKSSVTYYADSVKGRFTISRDNAKNTVYLQMNSVKPEDTAVYYCAGYSPRPSDLYSPIAYYYWGQGTLVTVSS
  polyreactivity (PSR sort gate): low polyreactivity

## QVQLVESGGGLVQAGGSLRLSCAASGSNFTGYGMGWYRQAPGKETELVAAITWSGGSTYYADSVKGRFTISRDNAKNTVYLQMNSLKPEDTAVYYCATPGIYYEMDYWGQGTQVTVSS
  polyreactivity (PSR sort gate): low polyreactivity

## QVQLVESGGGLVQAGGSLRLSCAASGSNFTSNGMGWYRQAPGKERELVAAITRRGGRTYYADSVKGRFTISRDNAKNTVYLQMNSLKPEDTAVYYCAAKSTSLYDYWGQGTQVTVSS
  polyreactivity (PSR sort gate): low polyreactivity

## QVQLVESGGGLVQAGGSLRLSCAASGSNFTVYDMGWYRQAPGKERELVAAISFSGGSTYYADSVKGRFTISRDTAKNTVYLQMNSLKPVDTAVYYCAADTYTTPYEYWGQGTQVTVSS
  polyreactivity (PSR sort gate): low polyreactivity

## QVQLVESGGGLVQAGGSLRLSCAASGSNFVKYVMGWSRQAPGKERELVAAITWRGGRTYYADSVKGRFTISRDNEKNTVYLQMNSLKPEDTAVYYCAAYDQSLYGRRYDYWGQGTQVTVST
  polyreactivity (PSR sort gate): high polyreactivity
